Data reported in US20260049138A1.

B1: GLS3000 H27dT (antibody, name in Kabat numbering, V domains shown)
VH: QVQLVESGGGVVQPGRSLRLSCAASGFTFSNAWMHWVRQAPGKGLEWVAQIKAKSNNYATYYAESVKGRFTISRDDSKNSLYLQMNSLKTEDTAVYYCRYVHYGAYYGVDAWGQGTTVTVSS
VL: DIVMTQSPLSLPVTPGEPASISCRSSQSLVTSNRNTYLHWYQQKPGQAPRLLIYKVSNRFSGVPDRFSGSGSGTDFTLKISRVEAEDVGVYYCGQGTQVPYTFGQGTKLEIK
B2: GLS3000 G91S (antibody, name in Kabat numbering, V domains shown)
VH: QVQLVESGGGVVQPGRSLRLSCAASGFTFSNAWMHWVRQAPGKGLEWVAQIKAKSNNYATYYAESVKGRFTISRDDSKNSLYLQMNSLKTEDTAVYYCRYVHYGAYYGVDAWGQGTTVTVSS
VL: DIVMTQSPLSLPVTPGEPASISCRSSQSLVHSNRNTYLHWYQQKPGQAPRLLIYKVSNRFSGVPDRFSGSGSGTDFTLKISRVEAEDVGVYYCGQSTQVPYTFGQGTKLEIK
B3: GLS3000 N28D (antibody, name in Kabat numbering, V domains shown)
VH: QVQLVESGGGVVQPGRSLRLSCAASGFTFSNAWMHWVRQAPGKGLEWVAQIKAKSNNYATYYAESVKGRFTISRDDSKNSLYLQMNSLKTEDTAVYYCRYVHYGAYYGVDAWGQGTTVTVSS
VL: DIVMTQSPLSLPVTPGEPASISCRSSQSLVHSDRNTYLHWYQQKPGQAPRLLIYKVSNRFSGVPDRFSGSGSGTDFTLKISRVEAEDVGVYYCGQGTQVPYTFGQGTKLEIK
B4: GLS3000 H27dV (antibody, name in Kabat numbering, V domains shown)
VH: QVQLVESGGGVVQPGRSLRLSCAASGFTFSNAWMHWVRQAPGKGLEWVAQIKAKSNNYATYYAESVKGRFTISRDDSKNSLYLQMNSLKTEDTAVYYCRYVHYGAYYGVDAWGQGTTVTVSS
VL: DIVMTQSPLSLPVTPGEPASISCRSSQSLVVSNRNTYLHWYQQKPGQAPRLLIYKVSNRFSGVPDRFSGSGSGTDFTLKISRVEAEDVGVYYCGQGTQVPYTFGQGTKLEIK
B5: GLS3000 H34R (antibody, name in Kabat numbering, V domains shown)
VH: QVQLVESGGGVVQPGRSLRLSCAASGFTFSNAWMHWVRQAPGKGLEWVAQIKAKSNNYATYYAESVKGRFTISRDDSKNSLYLQMNSLKTEDTAVYYCRYVHYGAYYGVDAWGQGTTVTVSS
VL: DIVMTQSPLSLPVTPGEPASISCRSSQSLVHSNRNTYLRWYQQKPGQAPRLLIYKVSNRFSGVPDRFSGSGSGTDFTLKISRVEAEDVGVYYCGQGTQVPYTFGQGTKLEIK
B6: GLS3000 G89R (antibody, name in Kabat numbering, V domains shown)
VH: QVQLVESGGGVVQPGRSLRLSCAASGFTFSNAWMHWVRQAPGKGLEWVAQIKAKSNNYATYYAESVKGRFTISRDDSKNSLYLQMNSLKTEDTAVYYCRYVHYGAYYGVDAWGQGTTVTVSS
VL: DIVMTQSPLSLPVTPGEPASISCRSSQSLVHSNRNTYLHWYQQKPGQAPRLLIYKVSNRFSGVPDRFSGSGSGTDFTLKISRVEAEDVGVYYCRQGTQVPYTFGQGTKLEIK
B7: CE115_M (antibody, V domains shown)
VH: EVQLVETGGSLVQPGKSLKLTCATSGFTFSNAWMHWVRQSPEKQLEWVAQIKAKSNNYATYYAESVKGRFTISRDDSKSNIYLQMNSLKEEDTAVYYCRYVHYGAYYGVDAWGQGTSVTVSS
VL: DVVMTQTPVSMSVSLGGQVSISCRSSQSLVHNNGNTYVSWYIQKPSQSPQLLIYKVSNRFSGISDRFSGSGSGTDFTLKISRVEPDDLGVYYCGQGTQDPYTFGAGTKLELK

Each binder was assayed against CD3ε homodimer protein (human) (UniProt P07766) (assay: SPR).
Sequence of CD3ε homodimer protein (human) (P07766 23-126 limits assumed): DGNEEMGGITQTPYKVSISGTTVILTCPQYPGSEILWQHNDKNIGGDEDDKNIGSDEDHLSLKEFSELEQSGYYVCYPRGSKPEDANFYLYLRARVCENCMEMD

Compared with B1, B2 is higher in KD ratio to GLS3000: 13000 for the first, 72100 for the second.

Going from B3 to B4, the KD ratio to GLS3000 falls from 4460 to 354.

Compared with B5, B6 is lower in KD ratio to GLS3000: 85800 for the first, 4130 for the second.

Each binder was assayed against biotinylated CD3ε epitope peptide (assay: SPR, Biacore T100, biotinylated CD3ε epitope peptide on CM5 via streptavidin, antibody as analyte).

For B7, the Kd was 67 nM.
